Kd and stoichiometry N data for one substance are collected here from article PMC12390655 (Viruses, 2025).

Assay [1] addresses monopartite NLS peptide (mpNLS) from the SV40 large T antigen (SV40). Briefly: fluorescence polarisation.
Assay [2] addresses bipartite NLS (bpNLS) from the nucleoplasmin. Briefly: fluorescence polarisation. In general terms: Fluorescence polarisation rises when a labelled molecule tumbles more slowly, as on binding a larger partner.
Assay [3] concerns the target eVP24–KPNA5-ΔIBB complex (human | Ebola virus) (UniProt Q05322). Briefly: native MS.
Assay [4] has as its target bipartite NLS (bpNLS) from the nucleoplasmin. The assay can be described thus: native MS.

Consider “eVP24–KPNA5-ΔIBB complex (from UniProt Q05322 11-237)”, for which the Kd (commonly a measure of binding affinity in units of concentration) was found to be 5.2 µM in assay [1] and 0.21 µM in assay [2]. Further, the figures for the stoichiometry N in assay [3] and in assay [4] were 2 and 1, respectively.
